Starred links: 1 amine or outer side, 2 acyl side, 3 side chain; linkers in the order of their positions; H or OH if unused. Non-standard residues stand in square brackets, D forms with d. Primed or numbered codes have the meaning given here. No end group written: not given here. Asn(OH)″ = N^γ-hydroxy-L-asparagine (L-aspartic acid β-hydroxamate), O=C(C[C@H](N[*:1])C(=O)[*:2])NO; Asn(OH) = N-gamma-hydroxy-L-asparagine, O=C(C[C@H](N[*:1])C(=O)[*:2])NO[*:3]

Here are results for 13 molecules from US20240167070A1 (NANYANG TECHNOLOGICAL UNIVERSITY, published 2024).

The target in assay [1] is T1, matrix metalloprotease 2 (MMP2) (UniProt P08253 110-660, limits assumed).
T1 sequence (looked up): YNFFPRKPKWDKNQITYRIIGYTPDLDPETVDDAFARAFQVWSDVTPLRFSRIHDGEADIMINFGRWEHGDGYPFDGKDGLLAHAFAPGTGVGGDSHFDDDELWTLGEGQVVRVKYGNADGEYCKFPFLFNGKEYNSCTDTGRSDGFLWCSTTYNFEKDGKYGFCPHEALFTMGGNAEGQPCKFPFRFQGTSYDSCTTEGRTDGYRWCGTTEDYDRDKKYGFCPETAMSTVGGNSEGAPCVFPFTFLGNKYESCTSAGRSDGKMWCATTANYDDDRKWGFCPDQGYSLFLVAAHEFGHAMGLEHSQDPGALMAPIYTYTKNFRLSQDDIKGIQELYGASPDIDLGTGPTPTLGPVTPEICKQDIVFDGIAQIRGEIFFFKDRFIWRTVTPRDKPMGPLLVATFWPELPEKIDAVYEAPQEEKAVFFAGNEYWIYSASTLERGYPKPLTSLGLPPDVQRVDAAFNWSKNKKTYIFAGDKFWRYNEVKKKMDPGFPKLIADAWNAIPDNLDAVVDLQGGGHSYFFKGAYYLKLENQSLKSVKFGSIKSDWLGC
Briefly: cell-based or functional assay.

In assay [2] the target is T1, matrix metalloprotease 2 (MMP2). The assay is described as follows: MMP2 FRET-substrate inhibition assay; Ki = IC50/(1+[S]0/Km). The protocol: (§1) The inhibitory activity of the peptides was determined by measuring the MMPs' protease activity towards a FRET substrate. […] MMP2 was pre-incubated with the peptide inhibitors for 10 min before adding the substrate.
For assay [3] the target is unchanged. Briefly: MMP2 FRET-substrate inhibition assay. The protocol:
as §1

Assay [4] shares this target. The assay is described as follows: MMP2 and MMP9 FRET-substrate inhibition assays. The protocol:
as §1

The target in a further assay is MMP9 (UniProt P14780 107-707, limits assumed). Briefly: MMP9 FRET-substrate inhibition assay; Ki = IC50/(1+[S]0/Km). The protocol:
as §1

The target in assay [5] is trypsin. The assay is described as follows: cell-based or functional assay.
Assay [6] has as its target trypsin. The assay is described as follows: trypsin FRET-substrate inhibition assay; Ki = IC50/(1+[S]0/Km).

MMP9, sequence (P14780 107-707 limits assumed): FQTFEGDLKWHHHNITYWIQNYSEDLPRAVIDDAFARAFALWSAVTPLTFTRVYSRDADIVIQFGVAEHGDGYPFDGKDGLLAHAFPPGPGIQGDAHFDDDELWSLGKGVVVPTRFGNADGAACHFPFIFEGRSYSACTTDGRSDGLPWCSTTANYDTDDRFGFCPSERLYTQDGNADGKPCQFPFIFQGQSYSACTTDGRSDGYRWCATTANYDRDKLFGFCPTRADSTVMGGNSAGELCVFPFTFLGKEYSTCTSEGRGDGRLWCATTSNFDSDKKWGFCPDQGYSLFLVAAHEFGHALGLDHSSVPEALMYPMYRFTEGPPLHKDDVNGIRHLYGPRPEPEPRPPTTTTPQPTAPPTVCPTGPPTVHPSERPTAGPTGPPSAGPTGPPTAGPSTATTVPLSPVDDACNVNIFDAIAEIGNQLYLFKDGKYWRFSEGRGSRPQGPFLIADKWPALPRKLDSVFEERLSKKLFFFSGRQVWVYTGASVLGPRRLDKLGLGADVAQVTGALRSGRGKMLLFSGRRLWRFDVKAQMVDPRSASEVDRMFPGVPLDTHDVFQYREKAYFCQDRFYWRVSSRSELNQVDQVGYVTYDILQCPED
trypsin, sequence (P00760 24-246): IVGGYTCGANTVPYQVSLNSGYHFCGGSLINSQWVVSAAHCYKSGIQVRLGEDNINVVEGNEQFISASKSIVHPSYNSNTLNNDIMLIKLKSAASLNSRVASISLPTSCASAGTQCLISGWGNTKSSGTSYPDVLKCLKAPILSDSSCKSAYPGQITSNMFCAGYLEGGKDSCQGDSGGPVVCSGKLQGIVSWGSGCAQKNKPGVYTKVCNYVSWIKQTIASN

B1: cyclo[…(OH)ALMPSGA] (peptide)
peptide: cyclo(GSGISYGQ[Asn(OH)]ALMPSGA)
SMILES: CC[C@H](C)[C@@H]1NC(=O)CNC(=O)[C@H](CO)NC(=O)CNC(=O)[C@H](C)NC(=O)CNC(=O)[C@H](CO)NC(=O)[C@@H]2CCCN2C(=O)[C@H](CCSC)NC(=O)[C@H](CC(C)C)NC(=O)[C@H](C)NC(=O)[C@H](CC(=O)NO)NC(=O)[C@H](CCC(N)=O)NC(=O)CNC(=O)[C@H](Cc2ccc(O)cc2)NC(=O)[C@H](CO)NC1=O
notes: also called peptide 13
Consider B1, for which the 50% inhibitory concentration (IC50) in assay [1] amounted to 18400 nM. The molecule also came in with a Ki in assay [2] of 12000 nM.

B2: cyclo[SISYGQN(OH)ALMPG] (peptide)
peptide: cyclo(SISYGQ[Asn(OH)″]ALMPG)
SMILES: CC[C@H](C)[C@@H]1NC(=O)[C@H](CO)NC(=O)CNC(=O)[C@@H]2CCCN2C(=O)[C@H](CCSC)NC(=O)[C@H](CC(C)C)NC(=O)[C@H](C)NC(=O)[C@H](CC(=O)NO)NC(=O)[C@H](CCC(N)=O)NC(=O)CNC(=O)[C@H](Cc2ccc(O)cc2)NC(=O)[C@H](CO)NC1=O
For the molecule B2, in assay [1], the “IC50” value is greater than 100000 nM.

B3: cyclo[SGISYGQN(OH)ALMPSG] (peptide)
peptide: cyclo(SGISYGQ[Asn(OH)″]ALMPSG)
SMILES: CC[C@H](C)[C@@H]1NC(=O)CNC(=O)[C@H](CO)NC(=O)CNC(=O)[C@H](CO)NC(=O)[C@@H]2CCCN2C(=O)[C@H](CCSC)NC(=O)[C@H](CC(C)C)NC(=O)[C@H](C)NC(=O)[C@H](CC(=O)NO)NC(=O)[C@H](CCC(N)=O)NC(=O)CNC(=O)[C@H](Cc2ccc(O)cc2)NC(=O)[C@H](CO)NC1=O
notes: also called peptide 12
With B3, the “IC50” value in assay [1] came to 10700 nM. In assay [2], this molecule yielded a Ki of 6980 nM.

B4: cyclo[…(OH)ALMPSGYM] (peptide)
peptide: cyclo(ATSGISYGQ[Asn(OH)]ALMPSGYM)
SMILES: CC[C@H](C)[C@@H]1NC(=O)CNC(=O)[C@H](CO)NC(=O)[C@H]([C@@H](C)O)NC(=O)[C@H](C)NC(=O)[C@H](CCSC)NC(=O)[C@H](Cc2ccc(O)cc2)NC(=O)CNC(=O)[C@H](CO)NC(=O)[C@@H]2CCCN2C(=O)[C@H](CCSC)NC(=O)[C@H](CC(C)C)NC(=O)[C@H](C)NC(=O)[C@H](CC(=O)NO)NC(=O)[C@H](CCC(N)=O)NC(=O)CNC(=O)[C@H](Cc2ccc(O)cc2)NC(=O)[C@H](CO)NC1=O
notes: also called peptide 14
Regarding B4, the “IC50” value in assay [1] was found to be 3340 nM. The same molecule yielded a Ki in assay [2] of 2180 nM.

B5: Asn(OH)-APP-IP peptide 9, ISYGNN(OH)ALMP (peptide)
peptide: ISYGN[Asn(OH)″]ALMP-NH2
modifications: N-terminus assumed
SMILES: CC[C@H](C)[C@H](N)C(=O)N[C@@H](CO)C(=O)N[C@@H](Cc1ccc(O)cc1)C(=O)NCC(=O)N[C@@H](CC(N)=O)C(=O)N[C@@H](CC(=O)NO)C(=O)N[C@@H](C)C(=O)N[C@@H](CC(C)C)C(=O)N[C@@H](CCSC)C(=O)N1CCC[C@H]1C(N)=O
notes: Linear 10-mer; also called linear Asn(OH)-APP-IP peptide 9
Consider B5, for which inhibition in assay [1] was half-maximal at 35 nM (IC50). For the same molecule, in assay [3], the “fold improvement of inhibitory activity against APP-IP 8” value is 2.6 fold. In assay [2], this molecule came in with a Ki of 23 nM.

B6: cyclo[ISYGQN(OH)ALMP] (peptide)
peptide: cyclo(ISYGQ[Asn(OH)″]ALMP)
SMILES: CC[C@H](C)[C@@H]1NC(=O)[C@@H]2CCCN2C(=O)[C@H](CCSC)NC(=O)[C@H](CC(C)C)NC(=O)[C@H](C)NC(=O)[C@H](CC(=O)NO)NC(=O)[C@H](CCC(N)=O)NC(=O)CNC(=O)[C@H](Cc2ccc(O)cc2)NC(=O)[C@H](CO)NC1=O
notes: also called peptide 10
As to B6, the “IC50” value in assay [1] came out at 32500 nM. The molecule further came in with a Ki in assay [2] of 21300 nM.

B7: Asn(OH)-RTD1 17, cyclo[SYCN(OH)CLCRRGVCRCICTI] (peptide)
peptide: cyclo(SYC[Asn(OH)]CLCRRGVCRCICTI)
modifications: disulfide (positions not given here); not fully specified (bridges); printed as cyclo[SYCN(OH)CLCRRGVCRCICTI]; also: oxidatively folded disulfides, pairing not given here
notes: also called peptide 17; grafted peptide 17
In the case of B7, in assay [3], the “fold better binding affinity against Asn-RTD-1 19” value was 13 fold, the “fold better binding affinity against Asp-RTD-1 18” value came to 2.3 fold and the “fold improvement of Ki against the linear Asn(OH)-APP-IP peptide 9” value turned out to be 8.2 fold. In addition, the “fold more potent towards MMP2 than MMP9” value in assay [4] was roughly 1000 fold. This molecule also yielded a Ki in assay [2] of 2.8 nM. Also, the Ki with MMP9 amounted to 2680 nM.

B8: Asp-RTD-1 18, cyclo[SYCDCLCRRGVCRCICTI] (peptide)
peptide: cyclo(SYCDCLCRRGVCRCICTI)
modifications: disulfide (positions not given here); also: oxidatively folded, disulfide pairing not given here
notes: Obtained by NaIO4 oxidation of Asn(OH)-RTD-1 17; also called peptide 18
Take B8: the Ki turned out to be 6.5 nM in assay [2] and 3290 nM with MMP9.

B9: Asn-RTD-1 19, cyclo[SYCNCLCRRGVCRCICTI] (peptide)
peptide: cyclo(SYCNCLCRRGVCRCICTI)
modifications: disulfide (positions not given here); also: oxidatively folded disulfides, pairing not given here
notes: also called peptide 19
Consider B9, for which the Ki in assay [2] came to 36.5 nM; in the assay with MMP9, 5590 nM.

B10: cyclo[…(OH)ALMPSGQYM] (peptide)
peptide: cyclo(ATRSGISYGQ[Asn(OH)″]ALMPSGQYM)
SMILES: CC[C@H](C)[C@@H]1NC(=O)CNC(=O)[C@H](CO)NC(=O)[C@H](CCCNC(=N)N)NC(=O)[C@H]([C@@H](C)O)NC(=O)[C@H](C)NC(=O)[C@H](CCSC)NC(=O)[C@H](Cc2ccc(O)cc2)NC(=O)[C@H](CCC(N)=O)NC(=O)CNC(=O)[C@H](CO)NC(=O)[C@@H]2CCCN2C(=O)[C@H](CCSC)NC(=O)[C@H](CC(C)C)NC(=O)[C@H](C)NC(=O)[C@H](CC(=O)NO)NC(=O)[C@H](CCC(N)=O)NC(=O)CNC(=O)[C@H](Cc2ccc(O)cc2)NC(=O)[C@H](CO)NC1=O
notes: also called peptide 15
In the case of B10, inhibition in assay [1] was half-maximal at 354 nM (IC50). The Ki in assay [2] is 231 nM.

B11: cyclic MCoTI-II, [GGVCPKILKKCRRDSDCPGACICRGNGYCGSGSD] (peptide)
peptide: cyclo(GGVCPKILKKCRRDSDCPGACICRGNGYCGSGSD)
modifications: not fully specified (bridges); also: three disulfide bonds, pairing not given here
notes: also called MCoTI-II 20; cyclo-MCoTI-II
Turning to B11, in the assay with trypsin [5], the “IC50” value amounted to 2.01 nM. This molecule yielded a Ki in the assay with trypsin [6] of 0.18 nM.

B12: rhesus theta defensin-1 (RTD-1) 16, cyclo[GFCRCLCRRGVCRCICTR] (peptide)
peptide: cyclo(GFCRCLCRRGVCRCICTR)
modifications: disulfide (positions not given here); not fully specified; printed as cyclo[GFCRCLCRRGVCRCICTR]
notes: also called peptide 16; native RTD-1
B12: in assay [2], the Ki turned out to be 60 nM.

B13: β-amyloid precursor protein-derived inhibitory peptide (APP-IP) 8, ISYGNDALMP (peptide)
peptide: ISYGNDALMP-NH2
notes: Linear 10-mer; also called peptide 8; linear APP-IP 8
As to B13, half-maximal inhibition in assay [1] (IC50) was put at 92 nM. Further, in assay [2], the Ki stood at 60 nM.
